What was measured:
[1] = target: T1, Recombinant CD8b (Sino biological) (human, UniProt P10966 22-170, limits assumed); assay: ELISA: antigen coated on the plate, antibody titrated, anti-IgG (Fc)-HRP and TMB, A450
T1 construct: also called CD8b alone
Procedure: (§1) Binding specificity of the antibodies was determined by ELISA. […] of recombinant CD8ab, CD8a (Sino biological), CD8b (Sino biological) and ovalbumin (Sigma) or Erb2 (human epidermal growth factor receptor 2) (Sino biological) in PBS were coated onto the maxisorp plate overnight at 4° C. Ovalbumin or Erb2 was used as negative control. Plate was then blocked with casein blocking solution (Thermo Scientific) for 1 hr at room temperature. After blocking, plate was washed with wash buffer (PBS/0.05% Tween-20). Next, dilution of antibody from 30 nM to 0.0009 nM in PBS/0.5% BSA/0.05% Tween-20 was added onto the plate and incubated for 1-2 hr at room temperature. After incubation, plate was washed, and incubated with anti-human IgG (Fc specific)-HRP conjugate or anti-mouse IgG (Fc specific)-HRP conjugate (Jackson Immunoresearch) in PBS/0.5% BSA/0.05% Tween-20 for 1 hr. Binding was detected by adding TMB substrate (SeraCare) to the plate, followed by stopping solution of 0.1M HCl. Binding absorbance was read using GloMax® Discover Microplate Reader (Promega).

[2] = target: T2, Recombinant CD8a (Sino biological) (human, UniProt P01732 22-182); assay: as above
T2 construct: also called CD8a alone
T2 sequence (P01732 22-182 limits assumed): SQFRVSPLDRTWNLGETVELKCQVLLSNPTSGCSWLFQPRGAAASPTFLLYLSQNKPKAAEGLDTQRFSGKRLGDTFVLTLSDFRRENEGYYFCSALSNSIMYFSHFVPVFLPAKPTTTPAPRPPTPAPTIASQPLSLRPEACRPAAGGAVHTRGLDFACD
Procedure: as §1

[3] = target: T3, Recombinant human CD8ab protein (extracellular domains of CD8a and CD8b with leucine zippers and tags) (human, UniProt P01732 22-182; P10966 22-170); assay: as above
T3 construct: extracellular domain; Secreted from HEK293 cells; also called recombinant CD8ab; soluble CD8ab antigen; not shown: acidic leucine zipper; 8x Histidine tag; basic leucine zipper; Strep-tag II
T3 sequence (P01732 22-182, chain 1 of 2): as the sequence (P01732 22-182 limits assumed) above
T3 sequence (P10966 22-170, chain 2 of 2): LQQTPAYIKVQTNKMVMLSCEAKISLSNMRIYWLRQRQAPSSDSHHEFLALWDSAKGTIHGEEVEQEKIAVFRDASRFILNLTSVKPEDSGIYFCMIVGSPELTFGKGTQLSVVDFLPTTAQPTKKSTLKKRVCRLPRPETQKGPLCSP
Procedure: as §1

[4] = target: T4, CD8 on human CD8+ T cells (CD3+CD8a+CD8b+ cells of hPBMCs) (human, UniProt P01732 22-235; P10966 22-210); assay: flow cytometry on human PBMCs, CD8+ T cells (CD3+CD8a+CD8b+), anti-human Fc MFI
T4 construct: whole, on cells; also called CD8ab+ T cells
T4 sequence (P01732 22-235, chain 1 of 2): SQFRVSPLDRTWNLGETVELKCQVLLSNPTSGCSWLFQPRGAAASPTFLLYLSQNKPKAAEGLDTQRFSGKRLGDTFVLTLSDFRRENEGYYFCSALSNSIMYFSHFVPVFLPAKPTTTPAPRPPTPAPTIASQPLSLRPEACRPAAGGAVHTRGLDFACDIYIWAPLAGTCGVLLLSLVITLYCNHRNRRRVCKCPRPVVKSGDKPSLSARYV
T4 sequence (P10966 22-210, chain 2 of 2): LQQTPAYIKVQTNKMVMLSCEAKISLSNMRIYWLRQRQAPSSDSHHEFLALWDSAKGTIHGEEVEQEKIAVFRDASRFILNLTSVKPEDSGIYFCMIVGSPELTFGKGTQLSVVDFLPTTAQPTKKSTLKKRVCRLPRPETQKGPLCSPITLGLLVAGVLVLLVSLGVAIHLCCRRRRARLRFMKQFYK
Procedure: (§2) Binding of CD8ab antibodies to T cells (FIG. 4) and NK cells (FIG. 5) in hPBMCs was detected by staining with anti-human Fc antibody conjugated to APC. Anti-hFc was used to measure the binding of CD8 antibodies containing hFc. Mean fluorescence intensity (MFI) of staining with anti-hFc is used to denote binding. Binding of anti-hFc was determined in CD3+CD8a+CD8b+ cells (CD8+ T cells) and CD3-CD56+CD8a+ cells (CD8+NK cells).
(§3) The binding of CD8ab antibodies on cells was determined by flow cytometry. Freshly isolated PBMCs were incubated with CD8ab antibodies for 2 hours at 4° C. Cells were then stained with antibodies against surface markers CD3 (UCHT1), CD4 (RPA-T4), CD8a (SK1), CD56 (HCD56), and anti-human Fc antibody (HP6017). Anti-human Fc antibody was used to measure the binding of CD8ab antibodies containing hFc. Stained cells were washed and analyzed by flow cytometry and mean fluorescence intensity (MFI) of staining with anti-hFc was used to denote binding.

[5] = target: T3, Recombinant human CD8ab protein …; assay: SPR (Biacore T200, 37 C), antibody captured by anti-human IgG Fc, soluble CD8ab as analyte, 1:1 model
Procedure: (§4) Recombinant human CD8ab protein was generated. […] Antibodies were first captured on an anti-hJgG-Fc CM5 or CM4 surface prepared using the Human Antibody Capture Kit (Cytiva). […] Dissociation was monitored for 5-10 minutes, and the anti-hJgG-Fc surface was regenerated with 3M MgCl2 before recapturing mAb in each subsequent cycle. Binding data were analyzed by Biacore T200 Evaluation Software version 3.2 using a 1:1 binding model.

[6] = target: T5, CD8aa on human CD8+ NK cells (CD3-CD56+CD8a+ cells of hPBMCs) (human, UniProt P01732 22-235); assay: flow cytometry on human PBMCs, CD8+ NK cells (CD3-CD56+CD8a+), anti-human Fc MFI
T5 construct: whole, on cells; also called CD8aa+ NK cells
T5 sequence (P01732 22-235): as the sequence (P01732 22-235, chain 1 of 2) above
Procedure: as §2, §3

[7] = target: T4, CD8 on human CD8+ T cells …; assay: flow cytometry, CD8+ T cells, anti-human Fc MFI
Procedure: as §3

[8] = target: T3, Recombinant human CD8ab protein …; assay: SPR as in Example 1 (antibody captured, soluble CD8ab as analyte), steady state fit
Procedure: as §4

T1 sequence (P10966 22-170 limits assumed): as the sequence (P10966 22-170, chain 2 of 2) above

binding result [1] | binding result [2] | EC50 (read off the curve) [3] [nM] | EC50 (read off the curve) [4] [nM] | Kd [5] [nM] | koff [5] [s⁻¹] | kon [5] [M⁻¹ s⁻¹] | binding result [6] | EC50 (read off the curve) [7] [nM] | EC50 (read off the curve) [1] [nM] | Kd [8] [nM] | Binder
no binding (tested: 30 nM) | no binding (tested: 30 nM) | ~0.07 | ~0.3 | 0.35 | 0.000571 | 1.62e+06 | no binding (tested: 100 nM) |  |  |  | xhCD8v6 (antibody, human IgG1, V domains shown, also called xCD8v6) VH: EVQLVESGGGAVRPGGSLRLSCAASGFTFDDYGMSWVRQAPGKGLEWVSDINWSGEITAYADSVKGRFTISRDNAKNSLYLQMNSLRAEDTAVYYCARSNSYRWDDALDIWGQGTMVTVSS VL: not shown
 | no binding (tested: 30 nM) | ~0.05 | ~0.3 | 19.8 | 0.0183 | 922000 | no binding (tested: 100 nM) | ~0.3 | ~0.09 |  | xhCD8v1 (antibody, V domains shown, Mouse monoclonal antibody against CD8b; also called mouse monoclonal antibody xhCD8v1; xCD8v1) VH: QVHLQQSGPELVKPGASVKMSCKTSGYTFTKYTMHWVKQGHEESLEWIGHFNPNNDETKYNQKFTGKATLTVDKSSTTAYMELRSLTSDDSALYYCARDGLGLRLFADWGQGTLITVSA VL: DIQMTQSPASLSASVGETVTITCGASENIYGALNWYQRKQGKSPQLLIFGATNLADGVSSRFSGSGSDRQYSLKISSLHPDDVATYYCQNILDTPWTFGGGTKLEIK
 |  |  |  |  |  |  |  |  |  | 236 | xhCD8v8 (antibody, human IgG1, V domains shown, also called xCD8v8) VH: QVQLQQSGAELVRPGSSVKISCKASGYAFSSYWMNWVKQRPGQGLEWIGQIYPGDGDTNYNGKFKGKATLTADKSSSTAYMQLSSLTSEDSAVYFCARSGAAFSSYYAMDYWGQGTSVTVSS VL: DIQMTQSPASLSVSVGETVTITCRASENIYSNLAWYQQKQGKSPQLLVYAATNLADGVPSRFSGSGSGTQYSLKINSLQSEDFGSYYCQHFWGTPWTFGGGTKLEIK
